Consider 167 variants from the Human Domainome abundance scans (Beltran et al. 2025).

± gives the uncertainty stated by the source.

First the molecules themselves.
B1: Tyrosine-protein kinase BTK, residues 215 to 273; numbered along this chain, Q06187 (parent)
chain: ELKKVVALYDYMPMNANDLQLRKGDEYFILEESNLPWWRARDKNGQEGYIPSNYVTEAE

In the data set the parent is B1. The data set is described as follows: abundance fitness (aPCA) (normalised: wild type 0, dead -1); higher = more abundant; growth selection in yeast, the domain comes from the species named. Particulars: Homo sapiens.
In the case of N44R, the abundance fitness was -0.067 ± 0.043.

Consider N44T, for which the abundance fitness was found to be 0.029 ± 0.051.

In the case of S33K, the abundance fitness turned out to be 0.009 ± 0.079.

As for S33F, the abundance fitness was -0.015 ± 0.052.

For the variant S33D, the abundance fitness is -0.088 ± 0.08.

For S33R, the abundance fitness was -0.07 ± 0.033.

With P51G, the abundance fitness was -0.286 ± 0.034.

With P51M, the abundance fitness was -0.123 ± 0.055.

Regarding P51K, the abundance fitness is -0.106 ± 0.05.

As for P51H, the abundance fitness is -0.04 ± 0.097.

As for W37A, the abundance fitness is -0.03 ± 0.047.

Turning to D10C, the abundance fitness is -0.783 ± 0.37.

T56M: the abundance fitness was 0.025 ± 0.058.

For T56I, the abundance fitness is -0.184 ± 0.071.

Consider T56C, for which the abundance fitness was -0.032 ± 0.092.

With T56V, the abundance fitness was found to be 0.014 ± 0.038.

T56W: the abundance fitness was -0.044 ± 0.055.

For the variant T56F, the abundance fitness was -0.169 ± 0.068.

Consider Y9G, for which the abundance fitness was -0.018 ± 0.031.

For the variant E47V, the abundance fitness was -0.05 ± 0.041.

E47N: the abundance fitness is -0.115 ± 0.067.

In the case of E47A, the abundance fitness is -0.086 ± 0.051.

As for E47D, the abundance fitness was -0.011 ± 0.08.

On to Q20W, for which the abundance fitness was -0.131 ± 0.066.

On to Q20D, for which the abundance fitness was -0.168 ± 0.077.

As for Q20P, the abundance fitness was -0.037 ± 0.044.

For Q20H, the abundance fitness is -0.075 ± 0.08.

I50Y: the abundance fitness was -0.757 ± 0.1.

Consider I50N, for which the abundance fitness was -0.92 ± 0.17.

For I50V, the abundance fitness was -0.014 ± 0.038.

With I50L, the abundance fitness was -0.043 ± 0.035.

In the case of A16M, the abundance fitness is -0.141 ± 0.042.

Turning to A16F, the abundance fitness was -0.18 ± 0.053.

As for A16S, the abundance fitness is -0.042 ± 0.031.

On to A16Q, for which the abundance fitness turned out to be 0.016 ± 0.04.

Consider L8G, for which the abundance fitness was -0.338 ± 0.027.

As to Y54A, the abundance fitness turned out to be 0.02 ± 0.05.

Regarding K4P, the abundance fitness is -0.15 ± 0.066.

R22S: the abundance fitness is -0.003 ± 0.035.

As for R22N, the abundance fitness was -0.012 ± 0.079.

Take R22H: the abundance fitness was -0.08 ± 0.058.

Consider R22Y, for which the abundance fitness was 0 ± 0.07.

In the case of I29H, the abundance fitness is -0.99 ± 0.2.

In the case of I29M, the abundance fitness is -0.229 ± 0.043.

Turning to I29Q, the abundance fitness was -0.624 ± 0.07.

Regarding G48Y, the abundance fitness was -0.968 ± 0.15.

Consider G48E, for which the abundance fitness was -0.895 ± 0.12.

G48A: the abundance fitness was -0.825 ± 0.073.

For G48N, the abundance fitness is -0.97 ± 0.17.

For G48M, the abundance fitness was -0.946 ± 0.078.

As to K3C, the abundance fitness was -0.223 ± 0.09.

Turning to K3S, the abundance fitness is -0.135 ± 0.044.

In the case of K3Q, the abundance fitness was -0.293 ± 0.067.

Consider K3A, for which the abundance fitness was -0.225 ± 0.053.

With E32T, the abundance fitness was -0.013 ± 0.072.

For the variant E32P, the abundance fitness is -0.007 ± 0.066.

In the case of L2H, the abundance fitness was -0.167 ± 0.12.

Consider L2C, for which the abundance fitness is -0.177 ± 0.047.

Consider L2K, for which the abundance fitness is -0.095 ± 0.08.

With L2M, the abundance fitness was -0.055 ± 0.056.

As for L2Y, the abundance fitness is -0.036 ± 0.073.

As for P13M, the abundance fitness was -0.406 ± 0.077.

P13S: the abundance fitness was -0.081 ± 0.041.

Take N15V: the abundance fitness was determined as 0.052 ± 0.026.

Regarding N15F, the abundance fitness was -0.176 ± 0.045.

Turning to N15D, the abundance fitness is -0.018 ± 0.049.

Regarding N15P, the abundance fitness is -0.442 ± 0.044.

Take N15Y: the abundance fitness was -0.23 ± 0.062.

Turning to N15L, the abundance fitness is 0.004 ± 0.03.

On to K43F, for which the abundance fitness is -0.11 ± 0.072.

As to K43V, the abundance fitness is -0.001 ± 0.037.

Turning to P36E, the abundance fitness was -0.024 ± 0.057.

As for P36I, the abundance fitness was -0.294 ± 0.29.

For the variant P36F, the abundance fitness was -0.437 ± 0.15.

P36K: the abundance fitness worked out at 0.011 ± 0.072.

Regarding L30V, the abundance fitness was -0.015 ± 0.047.

With L30Q, the abundance fitness was -0.159 ± 0.052.

Take L30E: the abundance fitness is -0.104 ± 0.055.

Consider L30K, for which the abundance fitness is -0.076 ± 0.044.

As to L30S, the abundance fitness was -0.175 ± 0.038.

Regarding L30A, the abundance fitness is -0.12 ± 0.05.

For the variant M12Q, the abundance fitness is -0.009 ± 0.055.

Consider M12T, for which the abundance fitness turned out to be 0.016 ± 0.051.

Consider M12C, for which the abundance fitness is 0.032 ± 0.052.

Regarding M12P, the abundance fitness is -0.008 ± 0.048.

As to M12K, the abundance fitness amounted to 0.065 ± 0.051.

Consider M12D, for which the abundance fitness is -0.04 ± 0.054.

On to M12H, for which the abundance fitness was 0.006 ± 0.091.

For M12V, the abundance fitness is -0.022 ± 0.039.

Take M14P: the abundance fitness was -0.002 ± 0.049.

On to N53T, for which the abundance fitness is -0.054 ± 0.052.

As for N53E, the abundance fitness is -0.016 ± 0.041.

For E26H, the abundance fitness was -0.134 ± 0.099.

For E26F, the abundance fitness was -0.024 ± 0.054.

Consider E26D, for which the abundance fitness was -0.061 ± 0.078.

On to E26V, for which the abundance fitness is -0.032 ± 0.041.

In the case of L35N, the abundance fitness was -0.06 ± 0.066.

On to L35Q, for which the abundance fitness is -0.012 ± 0.051.

Regarding L35C, the abundance fitness is -0.082 ± 0.049.

As to L35E, the abundance fitness is -0.022 ± 0.065.

For the variant L35R, the abundance fitness is -0.006 ± 0.031.

For E1L, the abundance fitness was -0.074 ± 0.067.

As for E1I, the abundance fitness was -0.106 ± 0.46.

In the case of E1N, the abundance fitness was -0.012 ± 0.14.

E1V: the abundance fitness was -0.074 ± 0.048.

Take D42H: the abundance fitness is -0.321 ± 0.075.

As to D18V, the abundance fitness is -0.061 ± 0.038.

Regarding D18S, the abundance fitness was -0.051 ± 0.036.

Take D18F: the abundance fitness is -0.04 ± 0.067.

Consider D18H, for which the abundance fitness is 0.146 ± 0.065.

On to L21H, for which the abundance fitness is -0.761 ± 0.19.

For the variant L21W, the abundance fitness is -1.09 ± 0.11.

Q46L: the abundance fitness was -0.014 ± 0.031.

With Q46H, the abundance fitness came to 0.04 ± 0.069.

Q46F: the abundance fitness is -0.028 ± 0.06.

For V55F, the abundance fitness is -0.318 ± 0.061.

Regarding V55A, the abundance fitness was -0.32 ± 0.05.

Take V55Y: the abundance fitness was -0.836 ± 0.15.

In the case of V55Q, the abundance fitness was -0.945 ± 0.16.

Turning to A40W, the abundance fitness was -1.02 ± 0.087.

Turning to A40T, the abundance fitness is -0.456 ± 0.057.

As for A40P, the abundance fitness is -1.16 ± 0.14.

For A40Q, the abundance fitness was -0.758 ± 0.093.

As to A40R, the abundance fitness was -0.825 ± 0.044.

In the case of A40H, the abundance fitness was -0.674 ± 0.14.

As for R39P, the abundance fitness is -0.187 ± 0.073.

Consider Y49H, for which the abundance fitness is -0.074 ± 0.074.

Turning to Y49L, the abundance fitness was found to be 0.003 ± 0.033.

In the case of Y49V, the abundance fitness was -0.018 ± 0.038.

As to Y49W, the abundance fitness was -0.026 ± 0.047.

Turning to Y49F, the abundance fitness was -0.033 ± 0.057.

Regarding D25N, the abundance fitness was -0.074 ± 0.057.

On to D25E, for which the abundance fitness came out at 0.019 ± 0.043.

As to A7H, the abundance fitness is -0.804 ± 0.11.

For A7E, the abundance fitness is -0.813 ± 0.054.

A7K: the abundance fitness was -0.955 ± 0.06.

On to A7L, for which the abundance fitness is -1 ± 0.047.

Consider A7N, for which the abundance fitness was -1.11 ± 0.15.

As for V5G, the abundance fitness is -0.425 ± 0.039.

In the case of V5Q, the abundance fitness was -0.329 ± 0.059.

For the variant V5P, the abundance fitness was -0.755 ± 0.071.

As for V5F, the abundance fitness is -0.052 ± 0.046.

As for N34D, the abundance fitness stood at 0.073 ± 0.074.

On to N34G, for which the abundance fitness was determined as 0.07 ± 0.037.

As to N34W, the abundance fitness is -0.032 ± 0.06.

Turning to Y27K, the abundance fitness was -0.771 ± 0.062.

Regarding Y27M, the abundance fitness is -0.362 ± 0.051.

For Y27F, the abundance fitness was -0.157 ± 0.052.

In the case of A58K, the abundance fitness is -0.005 ± 0.086.

Consider A58C, for which the abundance fitness was -0.058 ± 0.06.

In the case of A58R, the abundance fitness is -0.03 ± 0.041.

For A58Q, the abundance fitness is -0.072 ± 0.077.

For A58D, the abundance fitness was -0.092 ± 0.06.

Take A58T: the abundance fitness was -0.051 ± 0.053.

As for A58F, the abundance fitness is -0.016 ± 0.073.

In the case of G24W, the abundance fitness is -0.34 ± 0.057.

For the variant G24D, the abundance fitness is -0.09 ± 0.052.

Turning to G24N, the abundance fitness was -0.096 ± 0.093.

Regarding E31R, the abundance fitness is -0.028 ± 0.032.

For the variant E31T, the abundance fitness was -0.04 ± 0.05.

For the variant E31D, the abundance fitness is -0.058 ± 0.078.

As for E31F, the abundance fitness was -0.005 ± 0.047.

Consider E31C, for which the abundance fitness is -0.034 ± 0.048.

Consider L19Y, for which the abundance fitness was -0.66 ± 0.059.

Take L19Q: the abundance fitness was -0.711 ± 0.059.

L19P: the abundance fitness was -0.515 ± 0.055.

In the case of K23W, the abundance fitness was -0.372 ± 0.033.
